# Measurements reported in PMC12691602, “Cryo-EM structure of the QseG-QseE complex reveals an accessory protein-driven two-component system activation mechanism” (mBio, 2025).
# T1: QseE-eGFP (Salmonella enterica serovar Typhimurium …, UniProt A0A4Z0KJZ8 1-461)
# T1 construct: QseE of S. Typhimurium SL1344 fused to eGFP; source: E. coli, purified
# T1 sequence: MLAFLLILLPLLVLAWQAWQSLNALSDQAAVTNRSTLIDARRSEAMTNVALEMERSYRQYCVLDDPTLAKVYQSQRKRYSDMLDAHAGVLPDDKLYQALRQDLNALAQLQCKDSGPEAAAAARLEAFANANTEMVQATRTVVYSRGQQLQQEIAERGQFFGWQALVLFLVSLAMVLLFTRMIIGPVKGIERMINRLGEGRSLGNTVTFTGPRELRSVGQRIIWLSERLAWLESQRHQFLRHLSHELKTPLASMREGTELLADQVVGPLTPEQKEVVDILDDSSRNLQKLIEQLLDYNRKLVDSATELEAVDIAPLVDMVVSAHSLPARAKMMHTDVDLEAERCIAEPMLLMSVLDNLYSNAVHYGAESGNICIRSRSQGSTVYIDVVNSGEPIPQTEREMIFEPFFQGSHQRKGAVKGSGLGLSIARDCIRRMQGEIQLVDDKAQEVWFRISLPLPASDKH
# T2: QseE (Escherichia coli, UniProt Q8XA47)
# T2 chain: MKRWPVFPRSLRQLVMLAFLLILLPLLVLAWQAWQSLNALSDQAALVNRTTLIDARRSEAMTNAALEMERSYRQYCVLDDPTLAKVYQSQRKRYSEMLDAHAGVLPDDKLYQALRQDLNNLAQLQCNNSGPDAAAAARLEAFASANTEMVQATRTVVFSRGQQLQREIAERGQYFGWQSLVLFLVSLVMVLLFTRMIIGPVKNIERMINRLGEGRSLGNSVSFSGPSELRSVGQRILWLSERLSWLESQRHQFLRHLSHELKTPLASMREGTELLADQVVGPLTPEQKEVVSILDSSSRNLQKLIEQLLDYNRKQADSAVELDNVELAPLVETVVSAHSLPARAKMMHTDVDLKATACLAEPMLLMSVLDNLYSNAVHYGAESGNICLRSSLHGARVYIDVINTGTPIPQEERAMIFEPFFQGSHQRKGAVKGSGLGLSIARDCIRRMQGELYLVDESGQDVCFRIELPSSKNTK
# B1: full-length QseE (QseEfl), C-terminal Strep II tag (natural protein)
# chain: T1 sequence
# notes: Dimer by cross-linking and in the cryo-EM structure; also called strep-tagged QseE; source: E. coli C43(DE3), purified from membranes in LMNG/CHS (Strep-Tactin, SEC); not shown: Strep II, C-terminal, kept
# B2: QseG (mature lipoprotein, QseG_(37-end)) (natural protein)
# chain: CVPHASQQLPDSAAQDTLPHYQLADYLPTACADIWSLRGQAVETNPLYWLRTIDCADRLMPVQSRAEARALTDDNWQNAFRRGILLADAKITPPERRAIVTRLEALSAQIPAQVRPVYQIWHDGQALQLALSAERQRYSKLQQTSDSELDALRQQQQALQTQLDLTTRKLESLTDIERQLSTRKPAGNYNADTPHTNDKPATSEDGAAPSPSQDEVTP
# notes: also called wild-type QseG; source: E. coli C43(DE3), purified (Strep-Tactin, on-column TEV cleavage, SEC); not shown: Strep II, N-terminal, cleaved
# B3: QseG_(37-221) (domain or fragment)
# chain: CVPHASQQLPDSAAQDTLPHYQLADYLPTACADIWSLRGQAVETNPLYWLRTIDCADRLMPVQSRAEARALTDDNWQNAFRRGILLADAKITPPERRAIVTRLEALSAQIPAQVRPVYQIWHDGQALQLALSAERQRYSKLQQTSDSELDALRQQQQALQTQLDLTTRKLESLTDIERQLSTRKP
# notes: QseG of S. Typhimurium SL1344, residues 37-221; Homodimer in the cryo-EM structure of the complex; source: E. coli C43(DE3), purified (Strep-Tactin, on-column TEV cleavage, SEC); not shown: Strep II, N-terminal, cleaved
# B4: QseG (protein)
# chain: CVQNHNKPAIDTPAEEKIPVYQLADYLSTECSDIWALQGKSTETNPLYWLRAMDCADRLMPAQSRQQARQYDDGSWQNTFKQGILLADAKITPYERRQLVARIEALSTEIPAQVRPLYQLWRDGQALQLQLAEERQRYSKLQQSSDSELDTLRQQHHVLQQQLELTTRKLENLTDIERQLSTRKPAGNFSPDTPHESEKPAPSTHEVTPDEP
# Experiments:
# [1] = target: strep-tagged QseE_(1-196) (Salmonella enterica serovar Typhimurium SL1344); assay: cross-linking; QseE constructs in solution (Fig. S2A); cross-linker and conditions not shown
# [2] = target: the molecule itself; assay: cryo-EM structure; QseG_(37-221) and QseE mixed at 3:1 molar ratio, complex separated by SEC; 3.9 Å map with C2 symmetry imposed; model limited to QseG 58-220 and QseE 34-173
# QseE-eGFP = target: T1, QseE-eGFP; assay: MST; QseG_(37-end) in serial dilution mixed with QseE-eGFP; 20 mM HEPES pH 7.5, 150 mM NaCl, 0.02% DDM, 0.05% Tween 20; 25°C, 30 min; Monolith NT.115, medium MST power, 40% LED; conditions: both partners purified
# QseE = target: T2, QseE
molecule,measurement,setting,value
strep-tagged QseE_(1-196) (from UniProt A0A4Z0KJZ8 1-196) (domain or fragment),stoichiometry N,[1],2
B1,stoichiometry N,[2],2
B2,Kd,QseE-eGFP,108 nM
B3,stoichiometry N,[2],2
B4,Kd,QseE,109 nM
